Assay results: the supplement of paper PMC11780869

Tested on: Bacillus subtilis
Assay: cleaved RNA product abundance (RNA/gDNA barcode ratio) relative to median wild-type variant (ratio to wild type); higher = more accumulation of the downstream cleavage product
In short: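 Cleaved product abundance is expressed as the RNA:gDNA barcode ratio per construct, scaled to the median construct carrying the unmutated site. The constructs were barcoded, mutagenized RNase Y cleavage-site windows in truncated aprE or tetM reporter mRNAs integrated into the B. subtilis chromosome. Cultures grew in LB at 37°C from OD600 0.0003 to 0.3 before cleaved RNA was gel-selected and barcode-sequenced.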

[1] = experiment (reporter, strain, medium): exp 4a: truncated aprE reporter, strain BJT201 with 2% xylose (RNase J1 expressed), cleavage site: cggR-gapA (positions -7 to +36 mutated)
[2] = experiment (reporter, strain, medium): exp 2b: truncated aprE reporter, strain BJT200, cleavage site: cggR-gapA (positions -7 to +36 mutated)
[3] = experiment (reporter, strain, medium): exp 8a: truncated aprE reporter, strain BJT201 with 2% xylose (RNase J1 expressed), cleavage site: glnRA (positions -5 to +31 mutated)
[4] = experiment (reporter, strain, medium): exp 6: tetM reporter, strain 168, cleavage site: cggR-gapA (positions -7 to +36 mutated)

Sequence	cleaved RNA product abundance [1]	cleaved RNA product abundance [2]	also measured
ACAGACGAAGGAGCCGCAAAGAAGATCTTAAGGGATGAATAATCCCTCAATATAAATATCTCTCACTTATTTAAA	0.166		
ACAGACGAAGGAGCCGCAAAGAAGTTATTATGGTATGAATAATCCCTCAATATAAATATCTCTCACTTATTTAAA	0.14	0.0925	
CGACATGTCCCGCTTCTTTCATTAATCCGTTAGGAACTGTTTTGCTATATACATTTACCTTTTAAGAGGAGGAAT			cleaved RNA product abundance [3]: 0.331
ACAGACGAAGGAGCCGCAAAGAAGTTATTAAGGGCTGAATAATCCCTAAATATAAATATCTCTCACTTATTTAAA	0.537		
ACAGACGAAGGAGCCGCAAATAAGTTATTAAGGGATGAATAATCCCTCAATATAAATACCTCTCACTTATTTAAA	0.538		
ACAGACGAAGGAGCCGCAAAGTAGTTATTAAGGGAGGAATAATCCCTCAATATAAATATCTCTCACTTATTTAAA	0.557		
ACAGACGAAGGAGCCGCAAAGAAGTTTTTAAGGGATGACTAATCCCTCAATATAAATATCTCTCACTTATTTAAA	0.212	0.201	
CGACATGTCCCGCTTCTTTCATTAATCTGTTAACAACTGTTTTGCTATATACATTTACCTTTTAAGAGGAGGAAT			cleaved RNA product abundance [3]: 0.238
ACAGACGAAGGAGCCGCAAAGAAATTTTTAAGGGATGAATAATCCCTCAATATAAATATCTCTCACTTATTTAAA	0.264	0.206	
CGACATGTCCCGCTTCTTTCATTATTCCGTTAACAACTGTTTTGCTATATACATTTACCTTTTAAGAGGAGGAAT			cleaved RNA product abundance [3]: 0.312
ACAGACGAAGGAGCCGCAAAGAAGTTATTTAGGGATGAATCATCCCTCAATATAAATATCTCTCACTTATTTAAA	0.542		
ACAGACGAAGGAGCCGCAAAGAAGTTATTAAGGGATGATTAATCCCTGAATATAAATATCTCTCACTTATTTAAA	0.458		
ACAGACGAAGGAGCCGCAAAGAAGTTATTAAGGAATGAATAATCTCTCAATATAAATATCTCTCACTTATTTAAA	0.155	0.0991	
CGACATGTCCCGCTTCTTTCATTAATCCGTTAGCAACTGTTTTGCTAAATACATTTACCTTTTAAGAGGAGGAAT			cleaved RNA product abundance [3]: 0.524
CGACATGTCCCGCTTCTTTCATTAATCCGTTAGCAACTGTTTTGTGATATACATTTACCTTTTAAGAGGAGGAAT			cleaved RNA product abundance [3]: 0.344
ACAGACGAAGGAGCCGCAAAGAAGTTATTAAAGGATGAATAATCCCTCAATATAGATATCTCTCACTTATTTAAA	0.0996		
CGACATGTCCCGCTTCTTTCATTAATCAGTTAGCAACTGTTTTGCTATATACATTTACTTTTTAAGAGGAGGAAT			cleaved RNA product abundance [3]: 0.903
ACAGACGAAGGAGCCGCAAAGAAGTTATTTAGGGATGAATAATCCCTCAATATAAATATCTCTCACTTATTTAAA	0.799	0.704	cleaved RNA product abundance [4]: 0.636
CGACATGTCCCGCTTCTTTCATTAATCCTTTAGCAACTGTTTTGCTATATACATTTACATTTTAAGAGGAGGAAT			cleaved RNA product abundance [3]: 0.783
CGACATGTCCCGCTTCTTTCATTAATCCGTTAGCAACTGTTTTGCTATATATATTTACCTTTTAAGAGGAGGAAT			cleaved RNA product abundance [3]: 1.03
ACAGACGAAGGAGCCGCAAAGAAGTTATTATGGGATGTATAATCCCTCAATATAAATATCTCTCACTTATTTAAA		0.31	
ACAGACGAAGGAGCCGCAAAGAAGTGATTAAGGGATGAATAATCCCGCAATATAAATATCTCTCACTTATTTAAA	0.124		
ACAGACGAAGGAGCCGCAAAGAAATTGTTAAGGGATGAATAATCCCTCAATATAAATATCTCTCACTTATTTAAA		0.377	

Sequence	cleaved RNA product abundance [1]	cleaved RNA product abundance [2]	also measured
ACAGACGAAGGAGCCGCAAAGAAGTTATTTAGTGATGAATAATCCCTCAATATAAATATCTCTCACTTATTTAAA	0.111	0.0988	
CGACATGTCCCGCTTCTTTCATTAATCCGTTAGCAACTGTTTTGCTATATACAATTTACCTTTTAAGAGGAGGAA			cleaved RNA product abundance [3]: 1.39
ACAGACGAAGGAGCCGCAAAAAAGTTATTAAGGGATGAATAATCCCTCAATATAAATAACTCTCACTTATTTAAA	1.13		
CGACATGTCCCGCTTCTTTCATTAATCCGTTAGCAACTGTTTTGCTATATACATATATCTTTTAAGAGGAGGAAT			cleaved RNA product abundance [3]: 1.06
ACAGACGAAGGAGCCGCAAAGAAGTTATTAAGGGATGAATAATTCGTCAATATAAATATCTCTCACTTATTTAAA		0.0726	
ACAGACGAAGGAGCCGCAAAGAAGTTATTAAGGGATGAATAATCCCTATATATAAATATCTCTCACTTATTTAAA	0.37		
ACAGACGAAGGAGCCGCAAAGAAGTTATTAAAGGATGAATATTCCCTCAATATAAATATCTCTCACTTATTTAAA	0.183		
ACAGACGAAGGAGCCGCAAAGAAGTTATTAAGAGATGATTAATCCCTCAATATAAATATCTCTCACTTATTTAAA	0.173		
ACAGACGAAGGAGCCGCATAGAAGTTATTAAGGGATTAATAATCCCTCAATATAAATATCTCTCACTTATTTAAA	1.38	1	
ACAGACGAAGGAGCCGCAAAGAAGTTATTAAGGGATGAACATTCCCTCAATATAAATATCTCTCACTTATTTAAA	0.633		
ACAGACGAAGGAGCCGCAAAGAAGTTATTAAGGAATGAATAATCCCTAAATATAAATATCTCTCACTTATTTAAA	0.147	0.152	
ACAGACGAAGGAGCCGCAAAGAATTTATTAAGGGACGAATAATCCCTCAATATAAATATCTCTCACTTATTTAAA	0.605	0.463	
ACAGACGAAGGAGCCGCAAAGAAGCTATTAAGGGATGAATAATCCCTCAATATAAAAATCTCTCACTTATTTAAA	0.713		
ACAGACGAAGGAGCCGCAAAGAAGTTATTAAGGGATTAATAATCCCTCAATATAAATAACTCTCACTTATTTAAA	0.594	1.02	
ACAGACGAAGGAGCCGCAAAGAAGTTATTTAGGGATGAATAATCCCTCAATATACATATCTCTCACTTATTTAAA	0.312		
ACAGACGAAGGAGCCGCAAAGAAGTTATTAAGGGATGATTAATACCTCAATATAAATATCTCTCACTTATTTAAA	0.134		
ACAGACGAAGGAGCCGCAGAGAAGTTATAAAGGGATGAATAATCCCTCAATATAAATATCTCTCACTTATTTAAA	0.295		
ACAGACGAAGGAGCCGCAGAGAAGTTATTAAGGGATGAATAATCCCTCAATATAAATATCTCTCACTTATTTAAA	0.799	0.839	cleaved RNA product abundance [4]: 0.208
ACAGACGAAGGAGCCGCAAAGAAGTTATTAATGGATGAATAATCCCTCAACATAAATATCTCTCACTTATTTAAA	0.101		
CGACATGTCCCGCTTCTTTCATTAATCAGGTAGCAACTGTTTTGCTATATACATTTACCTTTTAAGAGGAGGAAT			cleaved RNA product abundance [3]: 0.783
ACAGACGAAGGAGCCGCAAAAAAATTATTAAGGGATGAATAATCCCTCAATATAAATATCTCTCACTTATTTAAA	1.04	1.1	
ACAGACGAAGGAGCCGCAAAGAAATTATTAAGCGATGAATAATCCCTCAATATAAATATCTCTCACTTATTTAAA	0.121	0.096	
CGACATGTCCCGCTTCTTTCATTAATTCGTTAGCAAATGTTTTGCTATATACATTTACCTTTTAAGAGGAGGAAT			cleaved RNA product abundance [3]: 0.87
